Assay results as given in patent US20250262210A1 (TRUSTEES OF COLUMBIA UNIVERSITY IN THE CITY OF NEW YORK, published 2025).

Legend:
Assay in all cases: IP/MS, LZTR1 wild type-FLAG, U87
[1] = target: T1, SBNO2 (human, UniProt Q9Y2G9 1-1366, limits assumed)
T1 sequence (looked up): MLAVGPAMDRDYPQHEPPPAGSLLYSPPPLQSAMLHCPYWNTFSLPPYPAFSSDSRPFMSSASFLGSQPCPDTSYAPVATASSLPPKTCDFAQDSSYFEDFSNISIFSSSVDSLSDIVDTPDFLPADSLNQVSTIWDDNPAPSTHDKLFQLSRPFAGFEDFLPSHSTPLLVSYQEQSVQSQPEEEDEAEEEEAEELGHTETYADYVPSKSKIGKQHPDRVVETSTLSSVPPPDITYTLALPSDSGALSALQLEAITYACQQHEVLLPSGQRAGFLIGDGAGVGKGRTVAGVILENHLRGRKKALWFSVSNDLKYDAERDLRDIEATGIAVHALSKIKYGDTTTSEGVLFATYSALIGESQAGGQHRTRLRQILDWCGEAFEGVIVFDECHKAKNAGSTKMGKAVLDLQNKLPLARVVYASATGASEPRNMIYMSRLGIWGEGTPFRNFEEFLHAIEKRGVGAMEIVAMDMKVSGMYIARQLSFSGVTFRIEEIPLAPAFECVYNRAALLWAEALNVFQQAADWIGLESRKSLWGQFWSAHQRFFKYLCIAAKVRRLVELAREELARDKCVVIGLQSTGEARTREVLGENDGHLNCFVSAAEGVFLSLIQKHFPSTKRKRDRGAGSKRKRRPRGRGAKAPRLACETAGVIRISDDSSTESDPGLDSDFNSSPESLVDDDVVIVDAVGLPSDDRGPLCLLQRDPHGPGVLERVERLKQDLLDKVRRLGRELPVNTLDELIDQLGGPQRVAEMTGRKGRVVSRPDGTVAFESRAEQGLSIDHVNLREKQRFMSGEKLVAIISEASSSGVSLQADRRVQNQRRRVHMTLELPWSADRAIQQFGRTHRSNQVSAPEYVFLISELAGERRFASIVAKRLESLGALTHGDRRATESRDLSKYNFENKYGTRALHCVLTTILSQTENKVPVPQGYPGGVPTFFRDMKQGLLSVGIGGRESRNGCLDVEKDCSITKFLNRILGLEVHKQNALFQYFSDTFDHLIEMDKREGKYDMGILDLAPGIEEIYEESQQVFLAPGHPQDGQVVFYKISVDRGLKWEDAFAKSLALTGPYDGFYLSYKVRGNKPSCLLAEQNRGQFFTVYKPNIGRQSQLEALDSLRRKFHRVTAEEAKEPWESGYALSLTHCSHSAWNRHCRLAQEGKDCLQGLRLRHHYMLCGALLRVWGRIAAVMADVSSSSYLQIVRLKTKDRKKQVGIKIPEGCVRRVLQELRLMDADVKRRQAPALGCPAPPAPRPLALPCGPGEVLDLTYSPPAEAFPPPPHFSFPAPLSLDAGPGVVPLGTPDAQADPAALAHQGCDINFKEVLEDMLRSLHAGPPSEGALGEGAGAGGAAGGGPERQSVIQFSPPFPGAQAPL
In short: (§1)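 Gel slices were reduced with 5 mM DTT, alkylated with 11 mM IAA and digested overnight at 37° C. with trypsin. Peptides were analysed on an Orbitrap Fusion Tribrid by LC-MS/MS.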

[2] = target: TRIM16 (human, UniProt O95361 1-564, limits assumed)
In short: as §1

[3] = target: T2, VPS18 (human, UniProt Q9P253 2-973)
T2 sequence (looked up): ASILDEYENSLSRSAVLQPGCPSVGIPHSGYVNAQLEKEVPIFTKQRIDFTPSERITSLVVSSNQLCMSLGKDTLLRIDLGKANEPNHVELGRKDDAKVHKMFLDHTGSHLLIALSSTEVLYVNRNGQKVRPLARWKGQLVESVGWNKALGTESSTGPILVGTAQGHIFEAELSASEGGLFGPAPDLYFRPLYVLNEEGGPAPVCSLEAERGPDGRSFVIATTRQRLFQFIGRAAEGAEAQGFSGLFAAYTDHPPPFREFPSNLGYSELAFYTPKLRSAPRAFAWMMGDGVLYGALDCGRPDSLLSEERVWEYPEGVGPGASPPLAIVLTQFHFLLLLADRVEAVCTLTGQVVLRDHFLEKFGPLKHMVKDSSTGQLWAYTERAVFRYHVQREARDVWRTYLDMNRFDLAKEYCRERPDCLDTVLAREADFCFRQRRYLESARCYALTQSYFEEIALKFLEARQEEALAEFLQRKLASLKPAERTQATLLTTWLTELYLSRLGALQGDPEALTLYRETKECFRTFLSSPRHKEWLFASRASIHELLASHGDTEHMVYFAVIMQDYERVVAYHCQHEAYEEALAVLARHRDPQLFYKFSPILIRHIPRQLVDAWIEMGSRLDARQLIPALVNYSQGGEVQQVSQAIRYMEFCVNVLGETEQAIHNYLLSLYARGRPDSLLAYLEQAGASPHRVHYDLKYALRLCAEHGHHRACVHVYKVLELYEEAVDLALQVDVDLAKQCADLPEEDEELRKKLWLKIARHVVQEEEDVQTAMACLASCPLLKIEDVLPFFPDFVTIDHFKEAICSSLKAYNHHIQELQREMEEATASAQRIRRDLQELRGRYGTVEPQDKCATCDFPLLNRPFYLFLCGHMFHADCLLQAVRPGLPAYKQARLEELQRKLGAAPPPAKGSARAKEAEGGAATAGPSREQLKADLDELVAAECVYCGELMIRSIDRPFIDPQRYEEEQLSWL
In short: as §1

Measured: binding result

B1: LZTR1-FLAG (other, human, UniProt Q8N653 1-840, looked up)
chain: MAGPGSTGGQIGAAALAGGARSKVAPSVDFDHSCSDSVEYLTLNFGPFETVHRWRRLPPCDEFVGARRSKHTVVAYKDAIYVFGGDNGKTMLNDLLRFDVKDCSWCRAFTTGTPPAPRYHHSAVVYGSSMFVFGGYTGDIYSNSNLKNKNDLFEYKFATGQWTEWKIEGRLPVARSAHGATVYSDKLWIFAGYDGNARLNDMWTIGLQDRELTCWEEVAQSGEIPPSCCNFPVAVCRDKMFVFSGQSGAKITNNLFQFEFKDKTWTRIPTEHLLRGSPPPPQRRYGHTMVAFDRHLYVFGGAADNTLPNELHCYDVDFQTWEVVQPSSDSEVGGAEVPERACASEEVPTLTYEERVGFKKSRDVFGLDFGTTSAKQPTQPASELPSGRLFHAAAVISDAMYIFGGTVDNNIRSGEMYRFQFSCYPKCTLHEDYGRLWESRQFCDVEFVLGEKEECVQGHVAIVTARSRWLRRKITQARERLAQKLEQEAAPVPREAPGVAAGGARPPLLHVAIREAEARPFEVLMQFLYTDKIKYPRKGHVEDVLLIMDVYKLALSFQLCRLEQLCRQYIEASVDLQNVLVVCESAARLQLSQLKEHCLNFVVKESHFNQVIMMKEFERLSSPLIVEIVRRKQQPPPRTPLDQPVDIGTSLIQDMKAYLEGAGAEFCDITLLLDGHPRPAHKAILAARSSYFEAMFRSFMPEDGQVNISIGEMVPSRQAFESMLRYIYYGEVNMPPEDSLYLFAAPYYYGFYNNRLQAYCKQNLEMNVTVQNVLQILEAADKTQALDMKRHCLHIIVHQFTKVSKLPTLRSLSQQLLLDIIDSLASHISDKQCAELGADI
notes: Expressed in HEK 293T, HeLa or U87 cells; used as cell lysate; also called LZTR1 wild type-FLAG; LZTR1 WT; not shown: FLAG tag at the C-terminus
binds: all assays above
